{"source": "the supplement of paper PMC9112550", "about": "“Optimization of the antimicrobial peptide Bac7 by deep mutational scanning” (BMC Biology, 2022);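 note: peptides expressed intracellularly from a pBAD plasmid library in pooled LB shake-flask culture, induced with 0.3% L-arabinose, DNA abundance read by NGS, three biological replicates, DESeq2 with apeglm shrinkage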"}
{"tested_on": "Escherichia coli TOP10", "test": "shrunken log2 fold change of peptide-encoding DNA abundance (4.5 h post-induction vs induction); higher = less antimicrobial activity (less host growth inhibition)", "conditions": "time post-induction: 4.5 h; library: site-saturation at positions 5, 18, 19, 20"}
{"sequence": "RRIRSRPPRLPRPRPRPPFSPRP", "shrunken log2 fold change": -0.217}
{"sequence": "RRIRYRPPRLPRPRPRPDVYPRP", "shrunken log2 fold change": -0.0212}
{"sequence": "RRIRFRPPRLPRPRPRPIWMPRP", "shrunken log2 fold change": -0.226}
{"sequence": "RRIRFRPPRLPRPRPRPYSHPRP", "shrunken log2 fold change": -1.77}
{"sequence": "RRIRDRPPRLPRPRPRPCLYPRP", "shrunken log2 fold change": 0.0504}
{"sequence": "RRIRCRPPRLPRPRPRPYYMPRP", "shrunken log2 fold change": -0.904}
{"sequence": "RRIRRRPPRLPRPRPRPQEEPRP", "shrunken log2 fold change": 0.0332}
{"sequence": "RRIRGRPPRLPRPRPRPERHPRP", "shrunken log2 fold change": 0.834}
{"sequence": "RRIRERPPRLPRPRPRPYVWPRP", "shrunken log2 fold change": -0.401}
{"sequence": "RRIRIRPPRLPRPRPRPIRRPRP", "shrunken log2 fold change": 0.00942}
{"sequence": "RRIRIRPPRLPRPRPRPWPMPRP", "shrunken log2 fold change": 0.0828}
{"sequence": "RRIRDRPPRLPRPRPRPNTDPRP", "shrunken log2 fold change": -0.179}
{"sequence": "RRIRNRPPRLPRPRPRPHMMPRP", "shrunken log2 fold change": -0.326}
{"sequence": "RRIRERPPRLPRPRPRPLQSPRP", "shrunken log2 fold change": -0.306}
{"sequence": "RRIRMRPPRLPRPRPRPHNSPRP", "shrunken log2 fold change": -0.171}
{"sequence": "RRIRCRPPRLPRPRPRPWGWPRP", "shrunken log2 fold change": 0.221}
{"sequence": "RRIRVRPPRLPRPRPRPYNHPRP", "shrunken log2 fold change": -0.343}
{"sequence": "RRIRHRPPRLPRPRPRPGLCPRP", "shrunken log2 fold change": 0.101}
{"sequence": "RRIRARPPRLPRPRPRPSIPPRP", "shrunken log2 fold change": -0.349}
{"sequence": "RRIRARPPRLPRPRPRPLCWPRP", "shrunken log2 fold change": 0.43}
{"sequence": "RRIRARPPRLPRPRPRPFRHPRP", "shrunken log2 fold change": -0.0722}
{"sequence": "RRIRERPPRLPRPRPRPDMKPRP", "shrunken log2 fold change": 0.0475}
{"sequence": "RRIRKRPPRLPRPRPRPMVYPRP", "shrunken log2 fold change": -0.0451}
{"sequence": "RRIRFRPPRLPRPRPRPNWGPRP", "shrunken log2 fold change": 0.0529}
{"sequence": "RRIRCRPPRLPRPRPRPMPRPRP", "shrunken log2 fold change": 0.0702}
{"sequence": "RRIRTRPPRLPRPRPRPRMRPRP", "shrunken log2 fold change": 0.753}
{"sequence": "RRIRARPPRLPRPRPRPRDEPRP", "shrunken log2 fold change": 1.06}
{"sequence": "RRIRERPPRLPRPRPRPFFDPRP", "shrunken log2 fold change": 0.0568}
{"sequence": "RRIRNRPPRLPRPRPRPYHEPRP", "shrunken log2 fold change": -0.342}
{"sequence": "RRIRMRPPRLPRPRPRPKKCPRP", "shrunken log2 fold change": 0.959}
{"sequence": "RRIRVRPPRLPRPRPRPYMHPRP", "shrunken log2 fold change": -0.3}
{"sequence": "RRIRPRPPRLPRPRPRPNLRPRP", "shrunken log2 fold change": 0.197}
{"sequence": "RRIRKRPPRLPRPRPRPSWHPRP", "shrunken log2 fold change": -0.0776}
{"sequence": "RRIRPRPPRLPRPRPRPWHFPRP", "shrunken log2 fold change": -0.12}
{"sequence": "RRIRVRPPRLPRPRPRPYATPRP", "shrunken log2 fold change": -0.124}
{"sequence": "RRIRHRPPRLPRPRPRPVRNPRP", "shrunken log2 fold change": 0.0796}
{"sequence": "RRIRCRPPRLPRPRPRPCTYPRP", "shrunken log2 fold change": -1.19}
{"sequence": "RRIRYRPPRLPRPRPRPTSKPRP", "shrunken log2 fold change": 0.902}
{"sequence": "RRIRHRPPRLPRPRPRPYCGPRP", "shrunken log2 fold change": 0.113}
{"sequence": "RRIRDRPPRLPRPRPRPELDPRP", "shrunken log2 fold change": 1.47}
{"sequence": "RRIRFRPPRLPRPRPRPPGEPRP", "shrunken log2 fold change": 0.421}
{"sequence": "RRIRNRPPRLPRPRPRPYEAPRP", "shrunken log2 fold change": -0.143}
{"sequence": "RRIRWRPPRLPRPRPRPRVKPRP", "shrunken log2 fold change": 0.13}
{"sequence": "RRIRVRPPRLPRPRPRPNQIPRP", "shrunken log2 fold change": -0.1}
{"sequence": "RRIRDRPPRLPRPRPRPWHKPRP", "shrunken log2 fold change": -0.11}
{"sequence": "RRIRERPPRLPRPRPRPDREPRP", "shrunken log2 fold change": -0.0729}
{"sequence": "RRIRGRPPRLPRPRPRPHCAPRP", "shrunken log2 fold change": 0.606}
{"sequence": "RRIRQRPPRLPRPRPRPEVYPRP", "shrunken log2 fold change": -0.0137}
{"sequence": "RRIRQRPPRLPRPRPRPLGEPRP", "shrunken log2 fold change": 0.0549}
{"sequence": "RRIRPRPPRLPRPRPRPNIDPRP", "shrunken log2 fold change": -0.468}
{"sequence": "RRIRTRPPRLPRPRPRPYGSPRP", "shrunken log2 fold change": -0.154}
{"sequence": "RRIRCRPPRLPRPRPRPLVGPRP", "shrunken log2 fold change": 3.69}
{"sequence": "RRIRMRPPRLPRPRPRPWDEPRP", "shrunken log2 fold change": 0.391}
{"sequence": "RRIRARPPRLPRPRPRPIEMPRP", "shrunken log2 fold change": 0.563}
{"sequence": "RRIRMRPPRLPRPRPRPICCPRP", "shrunken log2 fold change": -0.00414}
{"sequence": "RRIRRRPPRLPRPRPRPQIGPRP", "shrunken log2 fold change": 0.164}
{"sequence": "RRIRMRPPRLPRPRPRPWASPRP", "shrunken log2 fold change": 0.0142}
{"sequence": "RRIRFRPPRLPRPRPRPRKSPRP", "shrunken log2 fold change": 0.123}
{"sequence": "RRIRTRPPRLPRPRPRPTDPPRP", "shrunken log2 fold change": -0.198}
{"sequence": "RRIRMRPPRLPRPRPRPRIPPRP", "shrunken log2 fold change": 0.199}
{"sequence": "RRIRRRPPRLPRPRPRPPSDPRP", "shrunken log2 fold change": 0.79}
{"sequence": "RRIRPRPPRLPRPRPRPYQKPRP", "shrunken log2 fold change": 0.0104}
{"sequence": "RRIRQRPPRLPRPRPRPLAEPRP", "shrunken log2 fold change": -0.0181}
{"sequence": "RRIRHRPPRLPRPRPRPAFVPRP", "shrunken log2 fold change": 0.113}
{"sequence": "RRIRYRPPRLPRPRPRPLSVPRP", "shrunken log2 fold change": -0.576}
{"sequence": "RRIRNRPPRLPRPRPRPPWLPRP", "shrunken log2 fold change": 0.482}
{"sequence": "RRIRIRPPRLPRPRPRPLSGPRP", "shrunken log2 fold change": -0.0874}
{"sequence": "RRIRWRPPRLPRPRPRPSKRPRP", "shrunken log2 fold change": 0.149}
{"sequence": "RRIRLRPPRLPRPRPRPKGEPRP", "shrunken log2 fold change": 0.149}
{"sequence": "RRIRVRPPRLPRPRPRPYCTPRP", "shrunken log2 fold change": -0.284}
{"sequence": "RRIRWRPPRLPRPRPRPFHFPRP", "shrunken log2 fold change": -0.451}
{"sequence": "RRIRCRPPRLPRPRPRPSDVPRP", "shrunken log2 fold change": 0.00436}
{"sequence": "RRIRDRPPRLPRPRPRPALCPRP", "shrunken log2 fold change": 0.225}
{"sequence": "RRIRMRPPRLPRPRPRPGPIPRP", "shrunken log2 fold change": 0.115}
{"sequence": "RRIRSRPPRLPRPRPRPWILPRP", "shrunken log2 fold change": -0.0844}
